Experiments:
[1] = molecular target: T1, c-Fms kinase in the U2OS-GFP-STAT1/CSF-1R cells (Homo sapiens, UniProt P07333); assay: Dose-effect of hrM-CSF inducing GFP-STAT1 nuclear translocation in U2OS-GFP-STAT1/CSF-1R cells; type: cell-based; conditions: 30 minutes
T1 construct: comprising full-length cDNA of human c-Fms; expressed in transfected cells; host or cells: human osteosarcoma U2OS cells stably expressing GFP-STAT1 (U2OS-GFP-STAT1/CSF-1R)
Experimental: In order to quantitatively detect the extent of nuclear translocation of GFP-STAT1 induced by hrM-CSF, in this Example, in Cell Analyzer 1000 or In Cell Analyzer 2000 was used to obtain the cell image of GFP-STAT1 nuclear translocation. The cell image obtained was analyzed by using Nuclear Trafficking Analysis Module, wherein the translocation index represents the extent of nuclear translocation of GFP-STAT1. Translocation index equals to the ratio of the mean fluorescence intensity of nucleus to the mean fluorescence intensity of cytoplasm of the cells obtained per well. The steps were as follows: • 1) seeding the cells to a 96-well culture plate (which was black and transparent at the bottom), culturing in an incubator at 37° C., 5% CO2, 80% humidity for 24 hours; • 2) washing the cell twice with serum-free DMEM medium that contains 4500 mg/L glucose, 4 mM L-glutamine, 0.2% BSA and 10 mM HEPES (hereafter referred to as cell analytic liquid), wherein the cell analytic liquid was added at 100 μL/well for each time; after that, adding 50 μL cell analytic liquid to each well; • 3) adding the cell analytic liquid that contains hrM-CSF at 50 μL/well, […], and incubating the cells in an incubator at 37° C. for 30 minutes; • 4) fixing the cells with 8% formaldehyde diluted with 1×PBS solution and preheated at 37° C. at 100 μL/well, and placing the plate in dark at room temperature for 20 minutes; • 5) discarding the cell fixation solution, adding 1×PBS solution that contains hoechst33342 at 200 μL/well, placing the plate in dark at room temperature for 30 minutes; • 6) obtaining the cell image by using In Cell Analyzer 1000, analyzing the extent of nuclear translocation of GFP-STAT1 by using Nuclear Trafficking Analysis Module. […]

[2] = molecular target: T1, c-Fms kinase in the U2OS-GFP-STAT1/CSF-1R cells; assay: Effect of the time for treating cells with hrM-CSF on GFP-STAT1 nuclear translocation; type: cell-based; conditions: 200 ng/mL hrM-CSF; 0-60 minutes
Experimental: The steps were as follows: • 1) using the cells prepared in the example 1 to prepare a cell suspension of 1×10^5 cells/mL, seeding the cells to a 96-well culture plate (which was black and transparent at the bottom) at 100 μL/well; and culturing the cells in an incubator at 37° C., 5% CO2, 80% humidity for 24 hours; • 2) washing the cells twice with the cell analytic liquid at 100 μL/well for each time, discarding the solution, and adding the cell analytic liquid at 50 μL/well; • 3) adding hrM-CSF diluted with the cell analytic liquid every 5 minutes, to obtain a final concentration of 200 ng/mL, setting the cell analytic liquid containing no hrM-CSF as the control, incubating the cells in an incubator at 37° C., and treating the cells with the cytokine for 0, 5, 10, 15, 20, 25, 30, 35, 40, 45, 50, 55, 60 minutes, respectively; • 4) adding the cell fixation solution preheated at 37° C. at 100 μL/well, slightly shaking the culture plate to mix the mixture uniformly, and placing the plate in dark at room temperature for 20 minutes; • 5) discarding the solution, adding 1×PBS solution that contains hoechst33342 at 200 μL/well, and placing the plate in dark at room temperature for 30 minutes; and • 6) obtaining the cell image by using In Cell Analyzer 2000, and analyzing the extent of nuclear translocation of GFP-STAT1 by using Nuclear Trafficking Analysis Module.

T1 sequence (P07333 20-972): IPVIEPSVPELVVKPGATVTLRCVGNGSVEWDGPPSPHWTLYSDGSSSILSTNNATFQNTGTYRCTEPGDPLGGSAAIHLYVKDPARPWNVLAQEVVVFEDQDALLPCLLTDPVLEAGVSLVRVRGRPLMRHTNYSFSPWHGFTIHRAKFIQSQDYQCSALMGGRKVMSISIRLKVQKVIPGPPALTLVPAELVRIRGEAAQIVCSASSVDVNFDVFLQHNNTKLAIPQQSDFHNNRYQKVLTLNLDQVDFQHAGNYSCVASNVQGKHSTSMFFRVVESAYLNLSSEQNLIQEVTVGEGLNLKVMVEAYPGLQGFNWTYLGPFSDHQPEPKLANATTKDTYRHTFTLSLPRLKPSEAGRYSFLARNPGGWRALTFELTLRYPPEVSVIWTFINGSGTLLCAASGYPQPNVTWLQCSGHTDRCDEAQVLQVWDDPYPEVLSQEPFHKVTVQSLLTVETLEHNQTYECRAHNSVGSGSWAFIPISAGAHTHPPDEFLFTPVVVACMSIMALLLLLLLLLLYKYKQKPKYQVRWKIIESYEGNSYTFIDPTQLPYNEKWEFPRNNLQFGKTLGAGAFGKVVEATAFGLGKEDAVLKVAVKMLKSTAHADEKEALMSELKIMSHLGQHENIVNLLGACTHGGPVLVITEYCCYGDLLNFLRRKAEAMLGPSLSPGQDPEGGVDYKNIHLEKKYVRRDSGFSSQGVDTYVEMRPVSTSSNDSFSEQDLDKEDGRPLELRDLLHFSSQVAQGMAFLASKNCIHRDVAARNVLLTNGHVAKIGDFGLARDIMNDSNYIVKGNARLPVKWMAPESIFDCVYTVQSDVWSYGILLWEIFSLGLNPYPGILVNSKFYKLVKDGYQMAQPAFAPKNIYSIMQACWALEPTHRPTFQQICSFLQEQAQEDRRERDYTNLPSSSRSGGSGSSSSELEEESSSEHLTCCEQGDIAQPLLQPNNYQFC

B1: hrM-CSF: recombinantly expressed human M-CSF (macrophage colony stimulating factor), ligand activating c-Fms (protein, UniProt P09603 33-554, looked up)
Macrophage colony-stimulating …: EEVSEYCSHMIGSGHLQSLQRLIDSQMETSCQITFEFVDQEQLKDPVCYLKKAFLLVQDIMEDTMRFRDNTPNAIAIVQLQELSLRLKSCFTKDYEEHDKACVRTFYETPLQLLEKVKNVFNETKNLLDKDWNIFSKNCNNSFAECSSQDVVTKPDCNCLYPKAIPSSDPASVSPHQPLAPSMAPVAGLTWEDSEGTEGSSLLPGEQPLHTVDPGSAKQRPPRSTCQSFEPPETPVVKDSTIGGSPQPRPSVGAFNPGMEDILDSAMGTNWVPEEASGEASEIPVPQGTELSPSRPGGGSMQTEPARPSNFLSASSPLPASAKGQQPADVTGTALPRVGPVRPTGQDWNHTPQKTDHPSALLRDPPEPGSPRISSLRPQGLSNPSTLSAQPQLSRSHSSGSVLPLGELEGRRSTRDRRSPAEPEGGPASEGAARPLPRFNSVPLTDTGHERQSEGSFSPQLQESVFHLLVPSVILVLLAVGGLLFYRWRRRSHQEPQRADSPLEQPEGSPLTQDDRQVELPV
For B1, the “concentration of hrM-CSF at which extent of nuclear translocation of GFP-STAT1 reached the maximum” value [1] was 600 ng/mL, the “concentration of hrM-CSF at which nuclear translocation of GFP-STAT1 began” value [1] was 10 ng/mL and the “median effective concentration (EC50) of hrM-CSF for inducing GFP-STAT1 nuclear translocation” value ([1]; n=6) was 0.0435 ± 0.00368 µg/mL. For the same molecule, the “treatment time at which extent of GFP-STAT1 nuclear translocation reached the maximum” value [2] was 30 min.
